The chains are these.
B1: Hairpin Ribozyme (parent)
chain: GUCCUCUUUCACGUGCGCGUGAAAGAGAGAAGUGAACCAGAGAAACACACGUUGUGGUAUAUUACCUGGUA

The data set covers variants of B1. Briefly: self-cleavage, relative activity (ratio to wild type); higher = more cleavage; co-transcriptional.
For the variant A45U G56A, the self-cleavage turned out to be 0.166.

As to C46U C65U, the self-cleavage amounted to 0.216.

Regarding C46U C48U, the self-cleavage stood at 0.139.

For C46U C48A, the self-cleavage was 0.203.

A44G U58A: the self-cleavage stood at 0.17.

For A47U A64C, the self-cleavage worked out at 0.0694.

For the variant A47C U55C, the self-cleavage worked out at 0.233.

Turning to A44U U55G, the self-cleavage worked out at 0.0792.

As to C46G G57U, the self-cleavage stood at 0.167.

Turning to A47G A71G, the self-cleavage worked out at 0.142.

On to A47U A49U, for which the self-cleavage was determined as 0.149.

Take A47U A49C: the self-cleavage turned out to be 0.144.

For A44G C50G, the self-cleavage came to 0.164.

As to A45C G69A, the self-cleavage was found to be 0.116.

As to A44U C46A, the self-cleavage stood at 0.116.

In the case of C46U G69C, the self-cleavage was determined as 0.138.

For the variant A43U U55A, the self-cleavage came out at 0.129.

Take A47U G69C: the self-cleavage is 0.227.

In the case of A47G C66A, the self-cleavage came out at 0.138.

Regarding A47G G68A, the self-cleavage stood at 0.181.

Turning to A44G G69A, the self-cleavage came out at 0.0936.

Regarding A44U A49G, the self-cleavage worked out at 0.0827.

On to A44U A49U, for which the self-cleavage is 0.109.

As to A47C C65A, the self-cleavage amounted to 0.282.

In the case of A47C U67C, the self-cleavage turned out to be 0.148.

A47C U67G: the self-cleavage was 0.123.

On to C46U U58A, for which the self-cleavage was found to be 0.0874.

For the variant A47C U70A, the self-cleavage was determined as 0.264.

As for A47G U55C, the self-cleavage stood at 0.207.

With A45C C48U, the self-cleavage turned out to be 0.145.

Consider C46G C66U, for which the self-cleavage came out at 0.215.

As for C46G C66A, the self-cleavage stood at 0.253.

On to C46G C66G, for which the self-cleavage was 0.162.

A44C U67A: the self-cleavage is 0.113.

With A44U U67G, the self-cleavage came to 0.102.

As to A44U U67A, the self-cleavage is 0.143.

Consider A44U U67C, for which the self-cleavage amounted to 0.099.

Consider C46G G51C, for which the self-cleavage was 0.0873.

As for C46G G51U, the self-cleavage came out at 0.164.

For the variant C46G G51A, the self-cleavage is 0.154.

A47U C66G: the self-cleavage turned out to be 0.116.

Consider A44C A47U, for which the self-cleavage worked out at 0.135.

As for A45G A64U, the self-cleavage worked out at 0.176.

For the variant A43U U60A, the self-cleavage turned out to be 0.255.

Consider C46U U53C, for which the self-cleavage worked out at 0.235.

On to A47U G51A, for which the self-cleavage came to 0.157.

With A47G C48G, the self-cleavage was 0.121.

In the case of C46A A49C, the self-cleavage was 0.156.

Take A47U U53C: the self-cleavage was 0.0703.

A47U U53A: the self-cleavage stood at 0.133.

Turning to A45G U62A, the self-cleavage is 0.0572.

Turning to A45G U62G, the self-cleavage turned out to be 0.12.

On to A43U G68A, for which the self-cleavage was 0.0877.

For A43U G68U, the self-cleavage is 0.223.

Turning to C46G U60C, the self-cleavage worked out at 0.0722.

As to C46A A61C, the self-cleavage amounted to 0.311.

For C46A G56A, the self-cleavage was 0.167.

Regarding A45U G69A, the self-cleavage was found to be 0.111.

With A43U U70C, the self-cleavage is 0.159.

Take A45G G56A: the self-cleavage came to 0.183.

Turning to A44C C50A, the self-cleavage amounted to 0.0943.

A45G A47G: the self-cleavage was 0.101.

Turning to A44U U58G, the self-cleavage came out at 0.136.

For A45C U63A, the self-cleavage was 0.0272.

As to A45U C46G, the self-cleavage turned out to be 0.241.

For A45U C46A, the self-cleavage turned out to be 0.125.

On to A44G G51A, for which the self-cleavage was 0.123.

With A44G G51C, the self-cleavage came out at 0.238.

With A44G G51U, the self-cleavage amounted to 0.175.

As to A45C G54A, the self-cleavage came to 0.132.

Consider A47C C48G, for which the self-cleavage was determined as 0.0552.

Take A47C C48U: the self-cleavage was 0.0858.

For the variant A43U U53C, the self-cleavage came out at 0.111.

For the variant A43U U53A, the self-cleavage came out at 0.206.

Regarding A43U U53G, the self-cleavage came out at 0.046.

As for C46A U67A, the self-cleavage turned out to be 0.122.

In the case of C46U U52A, the self-cleavage was 0.179.

As to A47G A61C, the self-cleavage is 0.132.

On to A47G A61U, for which the self-cleavage turned out to be 0.195.

Turning to C46U C66A, the self-cleavage is 0.113.

For C46U C66G, the self-cleavage came out at 0.146.

Take A47G G56A: the self-cleavage was determined as 0.103.

Consider A47G G56C, for which the self-cleavage worked out at 0.132.

In the case of C46G A61C, the self-cleavage was determined as 0.154.

On to A44U G69U, for which the self-cleavage was 0.299.

As to A44U G69A, the self-cleavage is 0.15.

As to A45C U60A, the self-cleavage was found to be 0.174.

With A45U U58A, the self-cleavage worked out at 0.132.

For the variant A45U U58G, the self-cleavage was 0.123.

On to A44U U60A, for which the self-cleavage worked out at 0.239.

In the case of C46U G51C, the self-cleavage was found to be 0.176.

As to C46U G51U, the self-cleavage was found to be 0.256.

For the variant A44U G54C, the self-cleavage amounted to 0.0888.

A44U G54U: the self-cleavage came to 0.0855.

With C46U U63A, the self-cleavage was found to be 0.0217.

C46U U63G: the self-cleavage is 0.221.

As for C46G G69C, the self-cleavage was found to be 0.123.

For C46G G69A, the self-cleavage came out at 0.179.

As to A45U U55C, the self-cleavage was 0.0822.

Turning to A45U U55G, the self-cleavage came out at 0.0773.

Consider A45C U52A, for which the self-cleavage came out at 0.0823.

Turning to A44U A64G, the self-cleavage was 0.202.

Turning to C46G A49G, the self-cleavage was determined as 0.137.

On to A44U A47G, for which the self-cleavage amounted to 0.0154.

Regarding A45C C65G, the self-cleavage was 0.0639.

As to A45C C65U, the self-cleavage stood at 0.102.

For A45U C65A, the self-cleavage was determined as 0.131.

For the variant C46U A59C, the self-cleavage stood at 0.32.

Take C46A G51C: the self-cleavage was 0.0397.

Turning to A47C G57A, the self-cleavage is 0.225.

For A45G A59C, the self-cleavage amounted to 0.151.

Consider A45U U63A, for which the self-cleavage amounted to 0.148.

A45U U63G: the self-cleavage was 0.0513.

Take A47U A59C: the self-cleavage is 0.164.

For the variant A45U U67C, the self-cleavage turned out to be 0.0755.

On to A47G U60A, for which the self-cleavage came to 0.139.

With A47G U60C, the self-cleavage was 0.135.

For the variant A47U C65U, the self-cleavage stood at 0.0249.

As to A43U A45U, the self-cleavage is 0.164.

On to A47G A59C, for which the self-cleavage was found to be 0.134.

In the case of A47G A59U, the self-cleavage was determined as 0.186.

Turning to A44G A45C, the self-cleavage was 0.252.

For C46A U55G, the self-cleavage amounted to 0.253.

Turning to C46A U55C, the self-cleavage worked out at 0.324.

As to A44G U62G, the self-cleavage came to 0.207.

Take A44G U62A: the self-cleavage came out at 0.0675.

Regarding A45G A61G, the self-cleavage came out at 0.169.

For the variant A45G A61U, the self-cleavage turned out to be 0.0962.

Consider A45C U55G, for which the self-cleavage is 0.0998.

As for A45C U55C, the self-cleavage turned out to be 0.244.

A43U C50G: the self-cleavage came out at 0.107.

Consider A43U C50U, for which the self-cleavage was determined as 0.116.

Regarding A47G U58G, the self-cleavage came out at 0.119.

With A43U A59U, the self-cleavage amounted to 0.204.

On to A43U A59G, for which the self-cleavage turned out to be 0.166.

C46U A49C: the self-cleavage stood at 0.201.

In the case of A45C, the self-cleavage came to 0.154.

Regarding A45U, the self-cleavage was determined as 0.14.

For the variant A45G, the self-cleavage was found to be 0.177.

For the variant A45C A49C, the self-cleavage came to 0.142.

In the case of A45C A49G, the self-cleavage stood at 0.0463.

As for A45C C50U, the self-cleavage was determined as 0.0931.

With A47C G54U, the self-cleavage turned out to be 0.241.

Regarding A47C G54C, the self-cleavage came to 0.228.

For the variant A44G G68U, the self-cleavage was 0.173.

For the variant A43U U63A, the self-cleavage is 0.107.

Regarding A43U U63C, the self-cleavage was 0.219.

Take A47G U70A: the self-cleavage stood at 0.204.

Turning to A45G C50G, the self-cleavage came out at 0.109.

For the variant A45C C46G, the self-cleavage is 0.152.

With C46A G54C, the self-cleavage was 0.129.

Consider C46A G54A, for which the self-cleavage is 0.126.

Regarding A47U G57A, the self-cleavage came out at 0.417.

Regarding A44U U62A, the self-cleavage was determined as 0.26.

On to A47G U62G, for which the self-cleavage worked out at 0.0586.

In the case of A47G U62C, the self-cleavage was found to be 0.0615.

For A47G C65U, the self-cleavage was 0.156.

A47C U52A: the self-cleavage came to 0.407.

Consider A47U U70A, for which the self-cleavage came out at 0.276.

Take A43U U58G: the self-cleavage worked out at 0.0898.

As for A43U U58A, the self-cleavage stood at 0.0678.

On to A44U U70G, for which the self-cleavage was 0.201.

With C46G U58G, the self-cleavage amounted to 0.112.

On to C46G U58C, for which the self-cleavage turned out to be 0.308.

As to C46G U58A, the self-cleavage stood at 0.256.

Turning to A47U U62C, the self-cleavage was 0.264.

On to A45U U53C, for which the self-cleavage is 0.161.

The values above are taken from the RNAGym collection of RNA variant scans (doi:10.7554/elife.80360).
